Bounds are passed on as bounds.

In assay [1] the target is T1, monomeric murine LTBR ECD (S28-L223) Fc fusion avi biotinylated (P1AE4410) (mouse, UniProt P0DOX5 223-449 = IgG part, biotinylated avi tag).
T1 construct: also called mu LTBR
Put plainly: SPR. (In general: SPR reads the build-up and loss of mass on a sensor chip optically.)

Assay [2] addresses T2, human LTBR ECD (S28-M227) N- and C-terminally extended-Fc-fusion wt kih HRYF-Avi-His biotinylated (P1AE7979) (human, UniProt P0DOX5 223-449 = IgG part, biotinylated avi tag).
T2 construct: also called hu LTBR
Put plainly: SPR, IgG captured.

Assay [3] concerns the target T3, monomeric cynomolgus LTBR ECD (S28-M227) Fc fusion avi biotinylated (P1AE4411) (cynomolgus, UniProt P0DOX5 223-449 = IgG part, biotinylated avi tag).
T3 construct: also called cyno LTBR
Put plainly: SPR, IgG captured.

Assay [4] has as its target T1, monomeric murine LTBR ECD (S28-L223) Fc …. Put plainly: SPR affinity set-up, antibody captured.
For assay [5], the target named is murine FAP-Avi-His biotinylated (P1AD9907) (mouse, UniProt P97321 27-761, biotinylated avi tag). Put plainly: SPR affinity set-up, antibody captured.
The target of assay [6] is T1, monomeric murine LTBR ECD (S28-L223) Fc …. The experiment in a line: SPR avidity set-up, LTBR on SA chip.

B1: P1AH0119 (BHA10) (antibody, human IgG1, kappa, L234A L235A, V domains shown)
VH: QVQLVQSGAEVKKPGSSVKVSCKASGYTFTTYYLHWVRQAPGQGLEWMGWIYPGNVHAQYNEKFKGRVTITADKSTSTAYMELSSLRSEDTAVYYCARSWEGFPYWGQGTTVTVSS
VL: DIQMTQSPSSLSASVGDRVTITCKASQNVGINVAWYQQKPGKAPKSLISSASYRYSGVPSRFSGSGSGTDFTLTISSLQPEDFATYFCQQYDTYPFTFGQGTKVEIKR
The term Kd denotes a measure of binding affinity in units of concentration. High values mean lower affinity, low ones higher affinity. As usually defined, the koff is the first-order rate constant of dissociation. A high value points to fast dissociation. As usually defined, the kon is the rate constant with which the complex forms. A high value points to faster complex formation. For B1, the binding result in assay [1] is listed as “no binding (tested: 300 nM)”. Besides, in assay [2], the affinity, expressed as Kd, was 0.5 nM; the T1/2 was determined as 14 min; the koff came to 0.000853 s⁻¹; the on-rate (kon) came out at 1.72e+06 M⁻¹ s⁻¹. In assay [3], this molecule came in with a dissociation constant Kd of 1.18 nM, a T1/2 of 8 min, a koff of 0.00154 s⁻¹ and an on-rate constant (kon) of 1.31e+06 M⁻¹ s⁻¹.

B2: P1AF4664 (bispecific antibody, mouse IgG1, kappa)
heavy 1: EVQLLESGGGLVQPGGSLRLSCAASGFTFSYYAMTWVRQAPGKGLEWIGVINSGGGTYYTDSVKGRFTMSRDNSKNTLYLQVNSLRAEDTAVYYCAKASTADVWGQGTTVTVSSAKTTPPSVYPLAPGSAAQTNSMVTLGCLVEGYFPEPVTVTWNSGSLSSGVHTFPAVLQSDLYTLSSSVTVPSSTWPSQTVTCNVAHPASSTKVDEKIVPRDCGCKPCICTVPEVSSVFIFPPKPKDVLTITLTPKVTCVVVAISKDDPEVQFSWFVDDVEVHTAQTKPREEQINSTFRSVSELPIMHQDWLNGKEFKCRVNSAAFGAPIEKTISKTKGRPKAPQVYTIPPPKKQMAKDKVSLTCMITNFFPEDITVEWQWNGQPAENYKNTQPIMKTDGSYFVYSKLNVQKSNWEAGNTFTCSVLHEGLHNHHTEKSLSHSPG
light 1: DIQMTQSPSSLSASVGDRVTITCQASQGISNYLSWYQQKPGKAPKRLIFAASSLESGVPSRFSGSGSGTDFTLTISSLQPEDFATYYCQQYNSYSLTFGGGTKLEIKRADAAPTVSIFPPSSRKLTSGGASVVCFLNNFYPKDINVKWKIDGSERQNGVLNSWTDQDSKDSTYSMSSTLTLTKDEYERHNSYTCEATHKTSTSPIVKSFNRNEC
heavy 2: EIVLTQSPGTLSLSPGERATLSCRASQSVSRSYLAWYQQKPGQAPRLLIIGASTRATGIPDRFSGSGSGTDFTLTISRLEPEDFAVYYCQQGQVIPPTFGQGTKVEIKSSAKTTPPSVYPLAPGSAAQTNSMVTLGCLVKGYFPEPVTVTWNSGSLSSGVHTFPAVLQSDLYTLSSSVTVPSSTWPSQTVTCNVAHPASSTKVDKKIVPRDCGCKPCICTVPEVSSVFIFPPKPKDVLTITLTPKVTCVVVAISKDDPEVQFSWFVDDVEVHTAQTKPREEQINSTFRSVSELPIMHQDWLNGKEFKCRVNSAAFGAPIEKTISKTKGRPKAPQVYTIPPPKEQMAKDKVSLTCMITNFFPEDITVEWQWNGQPAENYDNTQPIMDTDGSYFVYSDLNVQKSNWEAGNTFTCSVLHEGLHNHHTEKSLSHSPG
light 2: EVQLLESGGGLVQPGGSLRLSCAASGFTFSSHAMSWVRQAPGKGLEWVSAIWASGEQYYADSVKGRFTISRDNSKNTLYLQMNSLRAEDTAVYYCAKGWLGNFDYWGQGTLVTVSSRADAAPTVSIFPPSSEQLTSGGASVVCFLNNFYPKDINVKWKIDGSERQNGVLNSWTDQDSKDSTYSMSSTLTLTKDEYERHNSYTCEATHKTSTSPIVKSFNRNEC
notes: 1+1 anti-LTBR (0080)/anti-FAP (28H1) murine IgG1 DA PG crossMab; also called murine 1+1 surrogate
For the molecule B2, the dissociation constant Kd was 13 nM in assay [4] and under 0.1 nM in assay [5]. Besides, the t1/2 in assay [4] worked out at 1.25 min; in assay [6], 0.75 min.

B3: P1AF4674 (bispecific antibody, mouse IgG1, kappa)
heavy 1: EVQLLESGGGLVQPGGSLRLSCAASGFTFSYYAMTWVRQAPGKGLEWIGVINSGGGTYYTDSVKGRFTMSRDNSKNTLYLQVNSLRAEDTAVYYCAKASTADVWGQGTTVTVSSAKTTPPSVYPLAPGSAAQTNSMVTLGCLVEGYFPEPVTVTWNSGSLSSGVHTFPAVLQSDLYTLSSSVTVPSSTWPSQTVTCNVAHPASSTKVDEKIVPRDCGCKPCICTVPEVSSVFIFPPKPKDVLTITLTPKVTCVVVAISKDDPEVQFSWFVDDVEVHTAQTKPREEQINSTFRSVSELPIMHQDWLNGKEFKCRVNSAAFGAPIEKTISKTKGRPKAPQVYTIPPPKKQMAKDKVSLTCMITNFFPEDITVEWQWNGQPAENYKNTQPIMKTDGSYFVYSKLNVQKSNWEAGNTFTCSVLHEGLHNHHTEKSLSHSPGGGGGSGGGGSGGGGSGGGGSEVQLLESGGGLVQPGGSLRLSCAASGFTFSSHAMSWVRQAPGKGLEWVSAIWASGEQYYADSVKGRFTISRDNSKNTLYLQMNSLRAEDTAVYYCAKGWLGNFDYWGQGTLVTVSSRADAAPTVSIFPPSSEQLTSGGASVVCFLNNFYPKDINVKWKIDGSERQNGVLNSWTDQDSKDSTYSMSSTLTLTKDEYERHNSYTCEATHKTSTSPIVKSFNRNEC
light 1: DIQMTQSPSSLSASVGDRVTITCQASQGISNYLSWYQQKPGKAPKRLIFAASSLESGVPSRFSGSGSGTDFTLTISSLQPEDFATYYCQQYNSYSLTFGGGTKLEIKRADAAPTVSIFPPSSRKLTSGGASVVCFLNNFYPKDINVKWKIDGSERQNGVLNSWTDQDSKDSTYSMSSTLTLTKDEYERHNSYTCEATHKTSTSPIVKSFNRNEC
heavy 2: EVQLLESGGGLVQPGGSLRLSCAASGFTFSYYAMTWVRQAPGKGLEWIGVINSGGGTYYTDSVKGRFTMSRDNSKNTLYLQVNSLRAEDTAVYYCAKASTADVWGQGTTVTVSSAKTTPPSVYPLAPGSAAQTNSMVTLGCLVEGYFPEPVTVTWNSGSLSSGVHTFPAVLQSDLYTLSSSVTVPSSTWPSQTVTCNVAHPASSTKVDEKIVPRDCGCKPCICTVPEVSSVFIFPPKPKDVLTITLTPKVTCVVVAISKDDPEVQFSWFVDDVEVHTAQTKPREEQINSTFRSVSELPIMHQDWLNGKEFKCRVNSAAFGAPIEKTISKTKGRPKAPQVYTIPPPKEQMAKDKVSLTCMITNFFPEDITVEWQWNGQPAENYDNTQPIMDTDGSYFVYSDLNVQKSNWEAGNTFTCSVLHEGLHNHHTEKSLSHSPG
light 2: EIVLTQSPGTLSLSPGERATLSCRASQSVSRSYLAWYQQKPGQAPRLLIIGASTRATGIPDRFSGSGSGTDFTLTISRLEPEDFAVYYCQQGQVIPPTFGQGTKVEIKSSAKTTPPSVYPLAPGSAAQTNSMVTLGCLVKGYFPEPVTVTWNSGSLSSGVHTFPAVLQSDLYTLSSSVTVPSSTWPSQTVTCNVAHPASSTKVDKKIVPRDC
notes: 2+1 anti-LTBR (0080)/anti-FAP (28H1) murine IgG1 DA PG crossMab; also called murine 2+1 surrogate
As to B3, the Kd in assay [4] is 13 nM; in assay [5] it was under 0.1 nM. Besides, the values for the t1/2 in assay [4] and in assay [6] were 1.18 min and 6.88 min, respectively.

For the origin of these results see US20250034269A1 (Hoffmann-La Roche, published 2025).
